From the Immune Epitope Database (IEDB) come the findings set out here.

One assay deals with HLA-A*26:01. Description: IEDB peptide-MHC binding, purified MHC/competitive/radioactivity; filed as Kd, often an IC50 or EC50 that approximates it; ≥ and ≤ were set here for values at or beyond the usual limits of such assays.
The next assay addresses HLA-A*30:02. Described as above.
In a further assay the target is HLA-A*30:01. The assay is described as above.
The next assay deals with HLA-A*24:02. Described as above.
The next assay addresses HLA-A*23:01. Described as above.
A further assay has as its target HLA-A*29:02. The description is as above.
The target in assay [1] is HLA-A*02:01. Nature of the assay: IEDB peptide-MHC binding, purified MHC/competitive/fluorescence; ≥ and ≤ were set here for values at or beyond the usual limits of such assays.
In assay [2] the target is HLA-A*02:01. Nature of the assay: IEDB peptide-MHC binding, purified MHC/competitive/fluorescence; filed as Kd, often an IC50 or EC50 that approximates it; ≥ and ≤ were set here for values at or beyond the usual limits of such assays.
Assay [3] concerns the target HLA-A*11:01. Description: IEDB peptide-MHC binding, purified MHC/direct/fluorescence; filed as Kd, often an IC50 or EC50 that approximates it; ≥ and ≤ were set here for values at or beyond the usual limits of such assays. The conditions noted are these: source organism: SARS-CoV1.
Assay [4] deals with HLA-A*01:01. The description is as above. The conditions noted are these: source organism: SARS-CoV1.
The target of assay [5] is HLA-A*01:01. Nature of the assay: IEDB peptide-MHC binding, purified MHC/competitive/radioactivity; filed as Kd, often an IC50 or EC50 that approximates it; ≥ and ≤ were set here for values at or beyond the usual limits of such assays.
Assay [6] has as its target HLA-A*11:01. The description is as above. The conditions noted are these: source organism: Dengue virus 2 Jamaica/1409/1983.
The target in the next assay is HLA-A*03:01. The description is as above. Conditions: source organism: Dengue virus 2 Jamaica/1409/1983.
The target of a further assay is HLA-B*40:01. Description: IEDB peptide-MHC binding, purified MHC/direct/fluorescence; filed as Kd, often an IC50 or EC50 that approximates it; ≥ and ≤ were set here for values at or beyond the usual limits of such assays.
A further assay concerns the target HLA-B*07:02. The description is as above. The conditions noted are these: source organism: Mus musculus.
The next assay addresses HLA-A*69:01. Described as above.
The target of a further assay is HLA-B*27:05. The assay is described as above. The conditions noted are these: source organism: Homo sapiens.
Setting [7] is: source organism: Dengue virus 4 Philippines/H241/1956.
Where [8] appears, read: source organism: Vaccinia virus WR.
Setting [9] is: source organism: Lymphocytic choriomeningitis virus (strain Armstrong).
The mark [10] stands for this setting: source organism: Dengue virus 2 Jamaica/1409/1983.
[11] abbreviates: source organism: Sudan ebolavirus.
Setting [12] is: source organism: Zaire ebolavirus.
Where [13] appears, read: source organism: Mammarenavirus brazilense.
Where [14] appears, read: source organism: SARS coronavirus Tor2.
Where [15] appears, read: source organism: Dengue virus 1 Brazil/97-11/1997.
[16] abbreviates: source organism: Dengue virus 3 Martinique/1243/1999.
Setting [17] is: source organism: Vaccinia virus Copenhagen.
[18] abbreviates: source organism: Mammarenavirus guanaritoense.

Bounds are passed on as bounds.

As a reminder, the Kd is the free concentration of one partner at which half of the binding sites on the other are occupied at equilibrium, for simple one-to-one binding. On to GVVTKSGDY, for which the figures for the dissociation constant Kd with HLA-A*26:01 (setting [7]) and with HLA-A*30:02 (setting [7]) were 2.42 µM and 0.98 µM, respectively. On to MTRLPILLL, for which, in the assay with HLA-A*30:01 (setting [8]), the Kd was determined as 0.000646 µM. PMMCPFLFL: the Kd with HLA-A*24:02 (setting [9]) amounted to 0.484 µM; with HLA-A*23:01 (setting [9]), 0.22 µM; in the assay with HLA-A*29:02 (setting [9]), 0.208 µM. As to NSLEVEDYGF, the Kd with HLA-A*23:01 (setting [10]) worked out at 5.43 µM. As a reminder, the IC50 is the concentration that inhibits the measured activity by half. Low values mean greater potency, high ones weaker potency. In the assay with HLA-A*02:01 [1] (setting [11]), TGPCPGDYA registered an IC50 of 34.9 µM. Regarding KSKSRRLNL, the equilibrium dissociation constant (Kd) with HLA-A*30:01 (setting [8]) worked out at 0.0126 µM. As to SSTNQLRSV, the IC50 with HLA-A*02:01 [1] (setting [12]) is 48.2 µM. With LYTVKFPNLI, the dissociation constant (Kd) was 0.605 µM in the assay with HLA-A*24:02 (setting [13]), 0.538 µM with HLA-A*23:01 (setting [13]) and at least 54.7 µM with HLA-A*29:02 (setting [13]). In the case of KHKIFSPFK, the equilibrium dissociation constant (Kd) with HLA-A*30:01 (setting [8]) is 0.000886 µM. With LYPLAIPVTM, the equilibrium dissociation constant (Kd) was determined as 1.51 µM in the assay with HLA-A*24:02 (setting [7]) and 0.336 µM with HLA-A*23:01 (setting [7]).

As to ASKSLKPTK, in the assay with HLA-A*30:01 (setting [8]), the dissociation constant (Kd) was found to be 0.0151 µM. Still for that read-out and setting: under KTSHAKVLV stands 0.0709 µM. In the assay with HLA-A*02:01 [2] (source organism: Human alphaherpesvirus 1 strain 17), ALSALLTKL displayed a Kd of 0.313 µM. With TCDGNTFTY, the Kd with HLA-A*26:01 (setting [14]) was at least 38.6 µM; in the assay with HLA-A*30:02 (setting [14]) it was 0.107 µM; in the assay with HLA-A*24:02 (setting [14]), at least 23.9 µM; with HLA-A*23:01 (setting [14]), at least 77.8 µM; with HLA-A*29:02 (setting [14]) it was 0.00685 µM; with HLA-A*11:01 [3], 2.48 µM. The same sequence gave a dissociation constant Kd with HLA-A*01:01 [4] of 0.531 µM. As to MLAESCDSV, the Kd with HLA-A*02:01 [2] (source organism: Vaccinia virus) was 0.0011 µM. Consider GLYKSINVE, for which the IC50 in the assay with HLA-A*02:01 [1] (setting [8]) was 39.5 µM. As to ETTKKDLGI, the dissociation constant Kd with HLA-A*26:01 (setting [15]) is at least 54.7 µM. Consider GMSRIGMEV, for which the dissociation constant (Kd) with HLA-A*02:01 [2] (source organism: SARS-CoV1) came to 0.0016 µM.

In turn, LTTPENITT displayed an IC50 with HLA-A*02:01 [1] (setting [11]) of at least 157 µM. As to IVQYENLKY, the dissociation constant Kd with HLA-A*01:01 [5] (setting [15]) was found to be 5.95 µM; with HLA-A*30:02 (setting [15]), 0.191 µM. As for LAGVSLLPVC, in the assay with HLA-A*30:01 (setting [16]), the equilibrium dissociation constant (Kd) is 15.9 µM. On to LNASQYANC, for which the half-maximal inhibitory concentration (IC50) in the assay with HLA-A*02:01 [1] (setting [17]) was at least 1400 µM. On to ETLEQMQRKH, for which the dissociation constant (Kd) with HLA-A*26:01 (setting [15]) is 14 µM.

Turning to TEQAFYTRV, in the assay with HLA-A*02:01 [1] (setting [8]), the 50% inhibitory concentration (IC50) is at least 98.4 µM. As for RSTPFNMLK, the Kd with HLA-A*11:01 [6] is 0.0141 µM; in the assay with HLA-A*30:01 (setting [10]), 0.0204 µM; in the assay with HLA-A*03:01 it was 0.00805 µM. For the sequence VLFRLENHA, the Kd with HLA-A*02:01 [2] (source organism: Vaccinia virus WR 65-16) was 0.0565 µM. For the sequence HVFFSEYIV, in the assay with HLA-A*30:01 (setting [8]), the Kd came out at 0.883 µM.

Consider FPEHIFPAL, for which the dissociation constant Kd in the assay with HLA-B*40:01 (source organism: Mus musculus) amounted to 0.278 µM; with HLA-B*07:02, 0.937 µM; in the assay with HLA-A*69:01 (source organism: Mus musculus), 2.33 µM.

FLADKKMTL had a Kd with HLA-A*02:01 [2] (setting [8]) of 0.0015 µM.

In the assay with HLA-A*02:01 [1] (setting [12]), ASTVIYRGT came in with a 50% inhibitory concentration (IC50) of at least 222 µM.

On to EEALKGLPIR, for which the Kd in the assay with HLA-A*30:01 (setting [16]) was 0.609 µM. As to ASLFLPKLV, the IC50 with HLA-A*02:01 [1] (setting [12]) worked out at 11.9 µM. On to ESEIPNLDII, for which the Kd in the assay with HLA-A*01:01 [5] (setting [10]) came to 7.19 µM. For the sequence LTRYALHGK, the dissociation constant Kd with HLA-A*30:01 (setting [8]) worked out at 0.000252 µM. As for AIFFTTSLF, the Kd with HLA-A*24:02 (setting [18]) came to 1.21 µM; with HLA-A*23:01 (setting [18]) it was 0.246 µM; in the assay with HLA-A*29:02 (setting [18]), 0.274 µM. Consider AHSTIMPRL, for which the Kd with HLA-B*27:05 is 8.62 µM; in the assay with HLA-A*69:01 (source organism: Homo sapiens) it was 0.832 µM. In the case of GEGGVGSIL, the dissociation constant (Kd) in the assay with HLA-B*40:01 (source organism: Mycobacterium tuberculosis) was determined as 0.033 µM. For LNGAMVEYV, the IC50 with HLA-A*02:01 [1] (setting [17]) was 29.1 µM. The sequence TEAEKQLQQ yielded a 50% inhibitory concentration (IC50) in the assay with HLA-A*02:01 [1] (setting [12]) of at least 338 µM.

For RVLSIPPTA, in the assay with HLA-A*30:01 (setting [7]), the Kd stood at 0.118 µM.

On to GVVTRSGAY, for which the results for the Kd with HLA-A*26:01 (setting [10]) and with HLA-A*30:02 (setting [10]) were 0.836 µM and 0.00928 µM, respectively.
